Data taken from article PMC3593662.

What was measured:
[1] = test system: O=[N+]([O-])c1ccccc1O[C@@H]1O[C@H](CO)[C@H](O)[C@H](O)[C@H]1O; assay: o-nitrophenol release, A420, Michaelis-Menten non-linear fit; assay type: biochemical, Bifidobacterium longum subsp. infantis; details: optimum pH 5.0 and optimum temperature 45-55 °C, 0.1-4 mM ONPG
[2] = substrate: O=[N+]([O-])c1ccccc1O[C@@H]1O[C@H](CO)[C@H](O)[C@H](O)[C@H]1O; assay: as above; assay type: biochemical, Bifidobacterium longum; details: optimum pH 5.0-6.0 and optimum temperature 45-55 °C, 0.1-4 mM ONPG

Molecule | Km [1] | kcat [1] | kcat/Km [1] | Km [2] | kcat [2] | kcat/Km [2]
Blon_0268 (Bifidobacterium longum subsp. infantis ATCC 15697 = JCM 1222 = DSM 20088) | 600 µM | 5.11 s⁻¹ | 8500 M⁻¹ s⁻¹ |  |  | 
Blon_2123 (Bifidobacterium longum subsp. infantis ATCC 15697 = JCM 1222 = DSM 20088) (protein) MRARRDFAWPKLLTADGRGIAFGGDYNPDQWPEDVWDDDIRLMGQAGVNTVALAIFSWDRLQPTEDHWNFDWLDRIIDKLGQAGIAVDLASATATAPLWLYENHPEVLPRDKYGHPVNAGSRQSWSPTSPVFKEYALTLCRKLAERYGTNPYVTAWHMGNEYGWNNRDDYSDNALEAFRAWCRRKYGTIDALNQAWGTTFWGQEMTGFDEVLIPRFMGADSMVNPGQKLDFERFGNDMLLDFYKAERDAIAEICPDKPFTTNFMISTDQCCMDYAAWAEEVNFVSNDHYFHEGESHLDELACSDALVDSLALGKPWYVMEHSTSAVQWKPLNTRKRNGETVRDSLAHVAMGADAINFFQWRASAFGAEAFHSAMVPHAGENTKLFRQVCELGATLQALADAGVQGSELAHADTAILFSAESEWATRSETLPSMKLNHWHDVRDWYRAFLNAGARADIVPLAYDWSSYKTIVLPTVLMLSDADTRRLAGFVQDGGRVVVGYATGLLDERFHTWLGGYPGAGDGLLRSMLGVRGEEFNILGTETEDEPSEIRLASTGDSPTMDGAVTRLWQNDVTVAGPHVQVLAAYAGEEANEWELDGTAAITRNTYGEGEAYFLGCDLGVSDLTRFVGGWLAARPQDGRQPEANLRSPASGVTSDVLHTVRQSDDAIFDFYLTRGKSDVELRDIAGEPIVLFRAERGSDGGAYTVHRNGVLVMKRPNPSV |  |  |  | 1060 µM | 270 s⁻¹ | 250000 M⁻¹ s⁻¹
